Here are results for 5 substances from patent US20240156864A1.

This experiment has as its target CAR19.28ζ. The experiment in a line: co-IP with anti-CAR19 Ab from CAR-T cell lysate, LC-MS/MS.

Chain of CAR19.28ζ (chain, as listed by the source limits assumed): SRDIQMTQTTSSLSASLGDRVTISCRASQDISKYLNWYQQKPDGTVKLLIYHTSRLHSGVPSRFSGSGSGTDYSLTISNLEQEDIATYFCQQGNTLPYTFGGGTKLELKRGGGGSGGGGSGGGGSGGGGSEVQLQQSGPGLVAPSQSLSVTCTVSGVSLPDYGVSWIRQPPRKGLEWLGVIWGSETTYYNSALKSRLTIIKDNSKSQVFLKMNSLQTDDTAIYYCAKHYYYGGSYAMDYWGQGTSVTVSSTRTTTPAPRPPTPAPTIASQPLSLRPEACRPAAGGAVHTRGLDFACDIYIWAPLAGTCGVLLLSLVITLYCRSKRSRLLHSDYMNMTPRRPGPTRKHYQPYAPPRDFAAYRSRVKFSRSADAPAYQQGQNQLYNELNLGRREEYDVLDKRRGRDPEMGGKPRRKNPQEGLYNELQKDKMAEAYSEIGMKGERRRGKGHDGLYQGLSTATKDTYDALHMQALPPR

For “CD8α (from UniProt P01732 22-235) (receptor)”, the Area stood at 1.59e+08 and the Coverage is 32%.

Regarding “LCK (from UniProt P06239 2-509) (enzyme)”, the Area came to 6.84e+08 and the Coverage stood at 32%.

For the substance “PIK3CD (from UniProt O00329 1-1044) (enzyme)”, the Area worked out at 1.79e+08 and the Coverage was determined as 13%.

Consider PIK3R1 (from UniProt P27986 2-724), for which the Area was found to be 2.3e+08 and the Coverage was 17%.

THEMIS (from UniProt Q8N1K5 1-641) registered an Area of 1.89e+07, a Coverage of 3% and a Peptides (number identified) of 2.
